Data taken from patent CN113621064A (FUZHOU MAIXIN BIOTECHNOLOGY DEV CO LTD, dated 2021).

Biological target: T1, CD117蛋白 (c-kit, 干细胞因子受体) (human, UniProt P10721 26-976)
T1 construct: whole, on cells; Endogenous antigen in tissue sections (immunohistochemistry); The abstract names it as human; also called 人CD117抗原
Assay: immunohistochemistry on a tissue array of 28 gastrointestinal stromal tumours

T1 sequence (P10721 26-976): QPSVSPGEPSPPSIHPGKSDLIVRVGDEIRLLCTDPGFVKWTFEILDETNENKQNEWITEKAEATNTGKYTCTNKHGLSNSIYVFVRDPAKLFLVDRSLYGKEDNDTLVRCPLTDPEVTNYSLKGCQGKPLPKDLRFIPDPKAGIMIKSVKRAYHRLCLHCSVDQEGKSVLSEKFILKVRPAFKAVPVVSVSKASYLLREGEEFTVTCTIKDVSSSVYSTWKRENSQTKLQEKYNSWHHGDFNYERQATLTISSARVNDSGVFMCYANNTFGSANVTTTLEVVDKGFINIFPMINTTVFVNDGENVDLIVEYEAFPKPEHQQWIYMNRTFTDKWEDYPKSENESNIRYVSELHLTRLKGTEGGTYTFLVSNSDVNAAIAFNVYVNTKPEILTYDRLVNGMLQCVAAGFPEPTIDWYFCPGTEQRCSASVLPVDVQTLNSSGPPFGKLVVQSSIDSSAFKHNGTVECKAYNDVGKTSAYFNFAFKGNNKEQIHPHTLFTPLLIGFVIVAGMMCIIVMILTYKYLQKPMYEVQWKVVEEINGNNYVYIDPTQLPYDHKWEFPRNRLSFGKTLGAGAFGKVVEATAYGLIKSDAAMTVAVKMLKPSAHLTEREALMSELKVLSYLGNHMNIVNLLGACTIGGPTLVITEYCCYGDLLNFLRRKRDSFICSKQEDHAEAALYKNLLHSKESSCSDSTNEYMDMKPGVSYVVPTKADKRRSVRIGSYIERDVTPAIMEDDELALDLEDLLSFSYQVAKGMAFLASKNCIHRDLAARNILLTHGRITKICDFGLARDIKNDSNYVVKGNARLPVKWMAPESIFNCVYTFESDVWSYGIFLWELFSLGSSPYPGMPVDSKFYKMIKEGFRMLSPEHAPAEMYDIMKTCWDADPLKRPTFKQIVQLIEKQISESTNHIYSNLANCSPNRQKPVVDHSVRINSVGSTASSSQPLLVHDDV

binding result: binds
B1: 抗CD117蛋白单克隆抗体 (小鼠杂交瘤细胞株33G5分泌, CGMCC NO 21977) (antibody, V domains shown)
VH: EVKLQESGPSLVQPGGSMRLSCVASGFIFSNYWINWVRQSPEMGLEWIAQVKLKSDNYATHYAGSVKGRFTISRDDSKSSVYLQMNNLRPEDTGIYFCLGRLDVWGAGTTVTVSS
VL: DIMLTQSPLSLSVTIGQPASISCKSSQSLLYTDGKTYLNWLLQRPGQSPKLLIYLVSKLDSGVPDRFSGSGSGTDFTLKISRVEAEDLGVYYCLQATHFPQTFGGGTKLEIK
notes: also called CD117(33G5); 33G5分泌的CD117抗体
